Patent US20150368300A1, “COMPOSITIONS AND METHODS RELATING TO […] DOT1L RECRUITMENT BY MLL-FUSION PROTEINS” (published 2015)
Blank lines part the entries; values can stand above or below the binder they belong to. Where no end group is shown, it is not given here. fluorescein = fluorescein label, coupled through a lysine and two β-alanine spacer

Legend:
[1] = target: T1, AF9 (497-568), recombinant C-terminal domain of human AF9 (human, UniProt P42568); test: competitive SPR; peptide pre-incubated with AF9 (500 nM), over immobilised Mocr-DOT1L (826-1095)
[2] = target: T2, ENL (489-559), recombinant C-terminal domain of ENL (Homo sapiens (Human), UniProt Q03111); test: competitive SPR; peptide pre-incubated with ENL (500 nM), over immobilised Mocr-DOT1L (826-1095)
T2 sequence: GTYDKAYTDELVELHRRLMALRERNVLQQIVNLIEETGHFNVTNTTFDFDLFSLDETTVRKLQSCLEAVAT
Experimental: Solution competitive SPR based assay was performed to determine the IC₅₀ values of DOT1L peptides. […] IC₅₀ values were determined by non-linear least squares analysis using Graph Pad Prism 5.0 software.

[3] = target: T3, GB1-AF9 (497-568) (human) (UniProt P42568); test: competitive FP; displacement of Flu-DOT1L from GB1-AF9
T3 sequence: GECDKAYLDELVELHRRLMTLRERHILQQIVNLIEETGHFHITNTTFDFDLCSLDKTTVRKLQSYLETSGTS

DOT1L (826-937) (human) = target: T4, DOT1L (826-937) (human) (UniProt Q8TEK3); test: SPR; DOT1L construct immobilised on CM5 chip
T4 sequence: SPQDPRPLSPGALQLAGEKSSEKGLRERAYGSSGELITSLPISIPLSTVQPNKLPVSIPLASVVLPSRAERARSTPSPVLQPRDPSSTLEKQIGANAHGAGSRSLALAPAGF

DOT1L (826-958) (human) = target: T5, DOT1L (826-958) (human) (UniProt Q8TEK3); test: SPR; DOT1L construct immobilised on CM5 chip
T5 sequence: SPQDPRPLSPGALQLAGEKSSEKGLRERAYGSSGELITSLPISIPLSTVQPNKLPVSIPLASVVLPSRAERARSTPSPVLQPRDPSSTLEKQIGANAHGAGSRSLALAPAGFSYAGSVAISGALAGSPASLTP

DOT1L (854-1095) (human) = DOT1L (854-1095) (human) (UniProt Q8TEK3); test: SPR; DOT1L construct immobilised on CM5 chip
DOT1L (854-925) (human) = target: T6, DOT1L (854-925) (human) (UniProt Q8TEK3); test: SPR; DOT1L construct immobilised on CM5 chip
T6 sequence: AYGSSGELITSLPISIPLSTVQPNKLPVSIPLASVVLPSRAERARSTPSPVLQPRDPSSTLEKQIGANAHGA

DOT1L (925-1095) (human) [4] = target: DOT1L (925-1095) (human) (UniProt Q8TEK3); test: SPR; DOT1L construct immobilised on CM5 chip
[5] = target: Mocr-DOT1L (826-1095) (human) (UniProt Q8TEK3); test: SPR; DOT1L construct immobilised on CM5 chip
[6] = target: Flag-tagged full length human DOT1L protein, DOT1L (1-1537) (human) (UniProt Q8TEK3); test: SPR; full length Flag-DOT1L captured on chip
[7] = target: Flag-tagged full length human DOT1L protein, DOT1L (1-1537) (human) (UniProt Q8TEK3); test: SPR; Flag-DOT1L captured on anti-Flag CM5 chip, AF9 as analyte
DOT1L (925-1095) (human) [8] = target: DOT1L (925-1095) (human) (UniProt Q8TEK3); test: SPR; DOT1L (925-1095) immobilised, compared with the longer constructs
[9] = target: T7, MBP-ENL (489-559) (Homo sapiens (Human)) (UniProt Q03111); test: ITC; peptide (400 µM) into MBP-ENL (489-559) (80 µM)
T7 sequence: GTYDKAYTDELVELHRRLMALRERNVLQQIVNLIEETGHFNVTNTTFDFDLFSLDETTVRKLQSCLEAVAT

[10] = target: T3, GB1-AF9 (497-568) (human); test: competitive FP; displacement of N-Flu-DOT1L from GB1-AF9
[11] = target: T3, GB1-AF9 (497-568) (human); test: FP saturation; 10 nM Flu-DOT1L titrated with GB1-AF9
[12] = target: T7, MBP-ENL (489-559) (Homo sapiens (Human)); test: FP saturation; 10 nM Flu-DOT1L titrated with MBP-ENL
[13] = target: T3, GB1-AF9 (497-568) (human); test: FP saturation; 5 nM labeled peptide titrated with GB1-AF9
[14] = target: Mocr-DOT1L (826-1095) (human) (UniProt Q8TEK3); test: SPR; Mocr-DOT1L (826-1095) immobilised
[15] = target: Flag-tagged full length human DOT1L protein, DOT1L (1-1537) (human) (UniProt Q8TEK3); test: SPR; Flag-DOT1L captured on anti-Flag CM5 chip, ENL as analyte
[16] = target: T7, MBP-ENL (489-559) (Homo sapiens (Human)); test: ITC
[17] = target: T1, AF9 (497-568), recombinant C-terminal …; test: competitive SPR
[18] = target: T2, ENL (489-559), recombinant C-terminal …; test: competitive SPR
[19] = target: T7, MBP-ENL (489-559) (Homo sapiens (Human)); test: ITC; peptide (500 µM) into MBP-ENL (110 µM)

IC50 [1]: 98500 nM
IC50 [2]: 27500 nM
Binder: Ac-APISIPLSTV-NH2 [L865A, alanine mutated DOT1L 10mer peptide]

IC50 [1]: 30700 nM
IC50 [2]: 147000 nM
Binder: Ac-LPISIPASTV-NH2 [L871A, alanine mutated DOT1L 10mer peptide]

Kd (DOT1L (826-937) (human)): 78 nM
Kd (DOT1L (826-958) (human)): 92 nM
Kd (DOT1L (854-1095) (human)): 135 nM
Kd (DOT1L (854-925) (human)): 42 nM
Kd (DOT1L (925-1095) (human) [4]): 1820 nM
Kd [5]: 111 nM
fold higher affinity (AF9 against ENL) [6]: 6 fold
Kd [7]: 33 nM
fold decrease in binding affinity (DOT1L (925-1095) (human) [8]): 50 fold
B1: AF9 (497-568), recombinant C-terminal domain of human AF9 (protein)
chain: GECDKAYLDELVELHRRLMTLRERHILQQIVNLIEETGHFHITNTTFDFDLCSLDKTTVRKLQSYLETSGTS

Kd [11]: 65 nM
Kd [12]: 495 nM
Kd [13]: 95 nM
Binder: LPISIPLSTV-NH2 (not fully specified (N-terminus)) [N-Flu-DOT1L, fluorescein-labeled DOT1L 10-mer peptide (N-terminal label)]

Kd [14]: 2800 nM
fold decrease in binding affinity against the intact ENL C-terminal domain [14]: 10 fold
B2: ENL H1 (489-544) (protein)
chain: GTYDKAYTDELVELHRRLMALRERNVLQQIVNLIEETGHFNVTNTTFDFDLFSLDE

Kd [13]: 127 nM
Binder: Ac-LPISIPLSTV-fluorescein (also: C-terminal fluorescein label, attachment not given here) [C-Flu-DOT1L, fluorescently labeled DOT1L-10 mer peptide (C-terminal label)]

IC50 [1]: 5300 nM
IC50 [2]: 29100 nM
Binder: Ac-LPIAIPLSTV-NH2 [S868A, alanine mutated DOT1L 10mer peptide]

IC50 [1]: 700 nM
IC50 [2]: 4200 nM
Binder: Ac-LPISIPLSTA-NH2 [V874A, alanine mutated DOT1L 10mer peptide]

Kd [14]: 14600 nM
fold decrease in binding affinity against the intact ENL C-terminal domain [14]: 30 fold
Binder: EETGHFNVTNTTFDFDLFSLDETTVRKLQSCLEAVAT [ENL H2 (523-559)]

IC50 [1]: 550 nM
IC50 [2]: 2800 nM
Binder: Ac-LPISIPLATV-NH2 [S872A, alanine mutated DOT1L 10mer peptide]

More lines, now with the values behind:

Binder: Ac-LPASIPLSTV-NH2 [I867A, alanine mutated DOT1L 10mer peptide]
IC50 [1]: 57200 nM
IC50 [2]: > 200000 nM

Binder: Ac-LPISIALSTV-NH2 [P870A, alanine mutated DOT1L 10mer peptide]
IC50 [1]: 2800 nM
IC50 [2]: 11600 nM

Binder: LSPLRDTPPPQSLMVKITLDLLSRIPQ [AF4 recombinant protein (749-775 residues)]
IC50 [3]: 560 nM

Binder: Ac-LMVKITLDLLSRIP-NH2 [AF4 14 mer peptide, Ac-…-NH2]
IC50 [3]: 280 nM

Binder: Ac-LPISIPLSTV-NH2 [DOT1L 10mer peptide, Ac-…-NH2 (a.a. 865-874)]
Kd [9]: 1100 nM
Ki [10]: 68 nM

Binder: Ac-LPISIPLSTVQPNKLP-NH2 [DOT1L 16 mer peptide, Ac-…-NH2 (a.a. 865-880)]
Kd [9]: 900 nM
Ki [10]: 80 nM

Binder: Ac-LMVKITLDLLSRIP-NH2 [AF4 14 mer peptide, Ac-LMVKITLDLLSRIP-NH2]
IC50 [1]: 200 nM
IC50 [2]: 430 nM

Binder: Ac-LPISIPLSTV-NH2 [DOT1L 10mer peptide, Ac-LPISIPLSTV-NH2 (a.a. 865-874)]
IC50 [1]: 490 nM
IC50 [2]: 1340 nM

Binder: Ac-LPISIPLSAV-NH2 [T873A, alanine mutated DOT1L 10mer peptide]
Ki [10]: 203 nM
IC50 [1]: 58 nM
IC50 [2]: 360 nM

B3: ENL (489-559), recombinant C-terminal domain of ENL (protein)
chain: GTYDKAYTDELVELHRRLMALRERNVLQQIVNLIEETGHFNVTNTTFDFDLFSLDETTVRKLQSCLEAVAT
Kd (DOT1L (826-937) (human)): 81 nM
Kd (DOT1L (826-958) (human)): 122 nM
Kd (DOT1L (854-1095) (human)): 148 nM
Kd (DOT1L (854-925) (human)): 90 nM
Kd (DOT1L (925-1095) (human) [4]): 6220 nM
Kd [5]: 238 nM
Kd [15]: 206 nM
fold decrease in binding affinity (DOT1L (925-1095) (human) [8]): 30 fold

Binder: Ac-LPISIPLSTVQPNKLP-NH2 [DOT1L 16 mer peptide, Ac-LPISIPLSTVQPNKLP-NH2 (a.a. 865-880)]
IC50 [1]: 320 nM
IC50 [2]: 1560 nM

Binder: Ac-LPISAPLSTV-NH2 [I869A, alanine mutated DOT1L 10mer peptide]
IC50 [1]: > 200000 nM
IC50 [2]: > 200000 nM

Binder: Ac-LPISIPL-NH2 [DOT1L 7 mer peptide, Ac-LPISIPL-NH2 (865-871)]
fold lower affinity against the 16-mer and 10-mer DOT1L peptides [16]: 3 fold
fold reduction in binding against the 10-mer peptide [17]: 8 fold
fold reduction in binding against the 10-mer peptide [18]: 5 fold
Kd [19]: 3400 nM
IC50 [1]: 3900 nM
IC50 [2]: 7300 nM

Binder: Ac-LAISIPLSTV-NH2 [P866A, alanine mutated DOT1L 10mer peptide]
IC50 [1]: 3300 nM
IC50 [2]: 6500 nM
